Results on 2 molecules are retold here after US20090075314A1 (DUKE UNIVERSITY, published 2009).

No end group written: not given here.

The target of assay [1] is T1, human gastrin/CCK-B receptor (human, UniProt P32239 1-447).
T1 construct: Permanently expressed with arrestin-GFP in HEK-293 cells (Clone A); also called gastrin receptor; homo sapiens cholecystokinin B receptor
T1 sequence: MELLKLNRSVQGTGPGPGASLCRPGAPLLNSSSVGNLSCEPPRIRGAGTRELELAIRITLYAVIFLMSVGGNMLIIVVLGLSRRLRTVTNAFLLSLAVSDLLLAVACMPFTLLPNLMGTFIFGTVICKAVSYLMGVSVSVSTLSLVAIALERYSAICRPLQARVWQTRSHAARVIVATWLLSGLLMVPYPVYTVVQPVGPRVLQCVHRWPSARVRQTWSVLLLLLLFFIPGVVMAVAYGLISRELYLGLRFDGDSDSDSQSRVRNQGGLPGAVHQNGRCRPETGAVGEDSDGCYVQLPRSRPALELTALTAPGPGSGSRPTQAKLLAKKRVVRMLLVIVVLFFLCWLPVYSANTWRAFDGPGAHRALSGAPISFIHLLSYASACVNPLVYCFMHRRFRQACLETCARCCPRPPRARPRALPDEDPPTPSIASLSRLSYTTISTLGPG
The assay is described as follows: cell-based or functional assay.

Assay [2] concerns the target T1, human gastrin/CCK-B receptor. The assay is described as follows: derived from competitive displacement of [3H]CCK-8 from Clone A by hG17. How it is done: (§1) Membrane Preparation/Binding—All steps were performed at 4° C. Membrane binding was performed in triplicate as described in Shetzline et al., J. Biol. Chem. 273:[…] (1998). Membrane fractions were assayed immediately or stored at −80° C. […] Data were analyzed using Graph Pad-Prism.
(§2) Data are presented as mean±SEM.

The target is the same in assay [3]. Kind of assay: competitive displacement of [3H]CCK-8 from Clone A by hG17. How it is done: as §1, §2

In the case of pentagastrin (peptide), the arrestin-GFP translocation (TI/TF, two hours at 37° C.) in assay [1] was determined as 2.4 nM.
For QGPWLEEEEEAYGWMDF-NH2 (peptide, UniProt P01350 76-92, looked up, domain: gastrin-17; also called hGl 7) [synthetic human gastrin-17 peptide (hG17)], the Kd (as a rule, the free concentration of one partner at which half of the binding sites on the other are occupied at equilibrium, for simple one-to-one binding) in assay [2] was 17 nM. Also, in assay [3], the EC50 (usually the concentration that produces a half-maximal response) worked out at 28 nM.
